For data set [1], the system named is rat model of muscle pain disorder caused by silver nitrate. Put plainly: Effect of diclofenac coupled hyaluronic acids in rat model of muscle pain induced by silver nitrate (Test Example B5). Format: in vivo. The following applies: for duration of analgesic effect: 1% (w/v), intramuscular, observed for 3 days; for pain score vs control group / muscle pressure pain threshold value vs control group: i.m. 100 μL/site, 1% (w/v) in citric acid buffer, 24, 48, 72 h after administration; for pain score vs control group: FIG. 7; for muscle pressure pain threshold value vs control group: FIG. 8. How it is done:
As an inflammatory agent, 0.1 mol/L silver nitrate solution was filtered through a 0.22 μm filter and used. […] Accordingly, a rat model of muscle pain disorder caused by silver nitrate was prepared. […] At Hour 24 after the administration of 0.1 mol/L silver nitrate solution, the rats were divided into 3 groups, and each group was administered with either the test substance or citric acid buffer solution. […] Furthermore, ** and * represent, in the parametric Tukey test, **p<0.01 and *p<0.05 (vs Control), respectively. […] The length of move of the weight at which a pain-related behavior like avoidance is shown was read to one decimal place. This operation was repeated three times in total, and the median value was taken as the muscle pressure pain threshold value. […] Furthermore, *** represents, in the parametric Tukey test, ***p<0.001 (vs Control).

Data set [2] relates to rat model of muscle pain disorder caused by carrageenan. Put plainly: Effect of diclofenac coupled sodium hyaluronates in rat model of muscle pain disorder caused by carrageenan, 14 days (Test Example B7). Format: in vivo. Particulars: for muscle pressure pain threshold value vs control group: 1% (w/v) i.m. 14 days before carrageenan, measured 3 h after carrageenan, FIG. 10; for duration of analgesic effect: 1% (w/v), intramuscular administration.
Protocol: The following were prepared as a test substance in which citric acid buffer is used as a solvent. As an inflammatory agent, 10 mg/mL carrageenan solution was used. […] A rat (Crj: SD line (SPF), male, 7-week old) was fixed dorsally under general anesthesia, and a broad region around the left gastrocnemius muscle was shaved using a shaver.

A short description of data set [3]: Release test for conjugates obtained from Examples 26 to 28, citrate buffer pH 5.1 (Test Example A7). The class given is physicochemical. How it is done:
The amount of the dissociated diclofenac component which is present in a solution in an initial state (storage: Day 0) immediately after the dissolution was subjected to quantitative analysis based on ODS-HPLC. […] Meanwhile, the method for pre-treatment of HPLC sample is described below. Methanol (1 mL) was added to the stored solution (1 g). After dilution and addition of acetonitrile to 20 mL, the hyaluronic acid component was allowed to precipitate. The obtained supernatant was used as a HPLC sample. HPLC conditions are as follows. column: […] flow rate: 1 mL/min temperature: 35° C.

In data set [4] the test system is rat model of muscle pain disorder caused by carrageenan.
Protocol: (§2) As an inflammatory agent, 10 mg/mL carrageenan solution was used. As general anesthesia, inhalation of isoflurane (concentration of 3.0%, flow rate of 2.0 L/min) filled in a small animal anesthetizer (TK-4, manufactured by BioMachinery Co., Ltd.) was used.
(§3) A rat (Crj: SD line (SPF), male, 8-week old) was fixed dorsally under general anesthesia, and a broad region around the left gastrocnemius muscle was shaved using a shaver. The area for injection was sprayed with 70% alcohol for sterilization, and by using an injection tube applied with needle for subcutaneous insulin administration (MYJECTOR (registered trade mark), TERUMO CORPORATION), each test solution was injected (volume of 100 μL/site) for intramuscular administration into the left medial gastrocnemius muscle of a rat.
(§4) 10 Days after administering the test substance, each group was administered with 10 mg/mL carrageenan solution. As for the administration method, like the test substance, under inhalation of isoflurane, the region around the gastrocnemius muscle was sprayed with 70% alcohol for sterilization, and by using an injection tube applied with 29 G needle for subcutaneous insulin administration, it was injected (volume of 100 μL/site) for intramuscular administration into the left gastrocnemius muscle of a rat. […]
Data set [5] can be described thus: Release test for conjugates obtained from Examples 18 to 21 (Test Example A5). The class given is physicochemical. Particulars: 0.1% in 20 mM sodium phosphate buffer pH 7.0, 36°C. The source says:
The amount of the dissociated diclofenac component which is present in an initial state (storage: Day 0) immediately after the dissolution, and the amount of diclofenac ester which has been forced to dissociate by using a base were subjected to quantitative analysis based on ODS-HPLC. […] From the ratio between the obtained amount of the dissociated diclofenac component at each time point and the amount of dissociated diclofenac component resulting from forced dissociation, the dissociation ratio (%) was calculated. For a pre-treatment of a HPLC sample, OASIS HLB was used, and a fraction eluted by acetonitrile was analyzed. HPLC conditions are as follows. column: […] temperature: 35° C.

A short description of data set [6]: Release test for conjugates obtained from Examples 22 to 25 (Test Example A6). Format: physicochemical. Particulars: 0.1% in 20 mM sodium phosphate buffer pH 7.0, 36°C. The source says:
(§1) The amount of the dissociated diclofenac component which is present in an initial state (storage: Day 0) immediately after the dissolution, and the amount of diclofenac ester which has been forced to dissociate by using a base were subjected to quantitative analysis based on ODS-HPLC. […] From the ratio between the obtained amount of the dissociated diclofenac component at each time point and the amount of dissociated diclofenac component resulting from forced dissociation, the dissociation ratio (%) was calculated. For a pre-treatment of a HPLC sample, OASIS HLB was used, and a fraction eluted by acetonitrile was analyzed. HPLC conditions are as follows. column: […] flow rate: 1 mL/min temperature: 35° C.

A short description of data set [7]: Release test for conjugates obtained from Examples 15 to 17 (Test Example A4). Format: physicochemical. Particulars: 0.1% in 20 mM sodium phosphate buffer pH 7.0, 36°C.
Text: as §1

A short description of data set [8]: Release test for conjugates obtained from Examples 26 and 32 at 60, 40, 25°C (Test Example A9). The class given is physicochemical. How it is done:
The amount of the dissociated diclofenac component which is present in a solution in an initial state (storage: Day 0) immediately after the dissolution was subjected to quantitative analysis based on ODS-HPLC. Other aliquot was stored at 60° C., 40° C., or 25° C. immediately after the dissolution, the decomposition amount of diclofenac ester was similarly subjected to quantitative analysis after lapse of the each designated time. From the ratio between the obtained amount of the dissociated diclofenac component at each time point and the amount of dissociated diclofenac component resulting from forced dissociation, the dissociation ratio (%) was calculated. For a pre-treatment of a HPLC sample, OASIS HLB was used, and a fraction eluted by acetonitrile was analyzed. HPLC conditions are as follows. column: […] flow rate: 1 mL/min temperature: 35° C.

Data set [9] deals with rat model of muscle pain disorder caused by carrageenan. Nature of the data set: Effect of diclofenac coupled hyaluronic acid in rat model of muscle pain disorder caused by carrageenan, 10 days (Test Example B6). The class given is in vivo.
Protocol: The following were prepared as a test substance in which citric acid buffer is used as a solvent.
as §2, §3, §4
[10] abbreviates: 1% in sodium citrate buffer pH 5.1, 40°C, after 4 weeks.
[11] abbreviates: 1% in sodium citrate buffer pH 5.1, immediately after dissolution.
Setting [12] is: 1% (w/v), intramuscular administration.

Like-named read-outs stand apart in the source and are kept apart here.

Take “Diclofenac(1-amino-2-propanol)-hyaluronic acid”: in data set [1], the “duration of analgesic effect” value was determined as 3 days, the “pain score vs control group” value is “improved in a significant sense” and the “muscle pressure pain threshold value vs control group” value is “increased in a significant sense”. In addition, in data set [2], the “muscle pressure pain threshold value vs control group” value was “increased in a significant sense” and the “duration of analgesic effect” value is 14 days.
On to “Diclofenac(serine ethyl ester)-hyaluronic acid”, for which the results for the “Content of dissociated diclofenac (w/w %)” value in [3] (setting [10]) and in [3] (setting [11]) were 0.72 w/w % and 0.05 w/w %, respectively.
Turning to “Diclofenac(threonine ethyl ester)-hyaluronic acid”, the “Content of dissociated diclofenac (w/w %)” value in data set [3] (setting [10]) turned out to be 0.19 w/w %; in [3] (setting [11]), 0.00 w/w %.
On to “diclofenac (1-amino-2-propanol)-chondroitin sulfate [Example A4-1]”, for which, in data set [4] (1% (w/v) i.m. 10 days before carrageenan, FIG. 12), the “muscle pressure pain threshold value vs control group” value was “increased in a significant sense”. Further, the “duration of analgesic effect” value in [4] (setting [12]) was determined as 10 days.
As to “diclofenac (1-amino-3,3-dimethylbutan-2-ol)-chondroitin sulfate [Example A5-1]”, the diclofenac dissociation ratio in data set [5] (day 0) is recorded as 0.0%; in data set [5] (day 1) it was 0.0%; in [5] (day 2), 0.1%; in [5] (day 4) it was 0.1%; in [5] (day 8) it was 0.2%.
Regarding “diclofenac (1-amino-3,3-dimethylbutan-2-ol)-hyaluronic acid [Example A6-1]”, the diclofenac dissociation ratio in data set [6] (day 0) was determined as 0.0%; in data set [6] (day 1) it was 0.1%; in [6] (day 2), 0.2%; in data set [6] (day 4), 0.4%; in data set [6] (day 8) it was 0.8%.
As for “diclofenac (2-amino-1-cyclohexylethan-1-ol)-chondroitin sulfate [Example A5-3]”, the diclofenac dissociation ratio in [5] (day 0) stood at 0.0%; in [5] (day 1), 0.1%; in [5] (day 2), 0.1%; in [5] (day 4) it was 0.2%; in data set [5] (day 8) it was 0.4%.
On to “diclofenac (2-amino-1-cyclohexylethan-1-ol)-hyaluronic acid [Example A6-3]”, for which the diclofenac dissociation ratio came out at 0.0% in [6] (day 0); 0.2% in data set [6] (day 1); 0.4% in data set [6] (day 2); 0.7% in data set [6] (day 4); 1.6% in data set [6] (day 8).
With “diclofenac (4-amino-3-hydroxybutyric acid ethyl ester)-chondroitin sulfate [Example A5-4]”, the diclofenac dissociation ratio is on record as 0.1% in data set [5] (day 0); 0.4% in data set [5] (day 1); 0.9% in data set [5] (day 2); 1.7% in data set [5] (day 4); 3.3% in data set [5] (day 8).
With “diclofenac (4-amino-3-hydroxybutyric acid ethyl ester)-hyaluronic acid [Example A6-4]”, the diclofenac dissociation ratio in data set [6] (day 0) stood at 0.2%; in [6] (day 1) it was 1.7%; in data set [6] (day 2), 3.2%; in data set [6] (day 4) it was 6.2%; in data set [6] (day 8), 13.0%.
Turning to “diclofenac (serine ethyl ester)-chondroitin sulfate [Example A4-2]”, the diclofenac dissociation ratio in [7] (day 0) is 0.0%; in data set [7] (day 1), 10.9%; in data set [7] (day 2) it was 16.9%; in data set [7] (day 4) it was 31.9%; in data set [7] (day 8), 42.2%.
For “diclofenac (threonine ethyl ester)-chondroitin sulfate [Example A4-3]”, the diclofenac dissociation ratio was 0.1% in data set [7] (day 0); 2.0% in [7] (day 1); 4.0% in data set [7] (day 2); 7.2% in data set [7] (day 4); 10.5% in [7] (day 8).
As to “diclofenac-(2-aminoethanol)-hyaluronic acid”, the diclofenac dissociation ratio in data set [8] (1% in sodium citrate buffer pH 5.1, 25°C, 0 y (year)) was 1.3%; in data set [8] (1% in sodium citrate buffer pH 5.1, 25°C, 0.5 y (year)), 6.2%; in [8] (1% in sodium citrate buffer pH 5.1, 25°C, 1 y (year)) it was 10.9%; in data set [8] (1% in sodium citrate buffer pH 5.1, 40°C, 0 m (month)), 1.3%; in data set [8] (1% in sodium citrate buffer pH 5.1, 40°C, 4 m (month)) it was 13.5%; in data set [8] (1% in sodium citrate buffer pH 5.1, 40°C, 6 m (month)), 18.2%. The diclofenac dissociation ratio in data set [8] (1% in sodium citrate buffer pH 5.1, 40°C, 9 m (month)) turned out to be 23.7%; in data set [8] (1% in sodium citrate buffer pH 5.1, 40°C, 12 m (month)) it was 28.2%; in data set [8] (1% in sodium citrate buffer pH 5.1, 60°C, day 0), 1.3%; in data set [8] (1% in sodium citrate buffer pH 5.1, 60°C, day 7), 8.1%; in data set [8] (1% in sodium citrate buffer pH 5.1, 60°C, day 14) it was 12.7%; in [8] (1% in sodium citrate buffer pH 5.1, 60°C, day 21), 16.4%. Besides, the “duration of analgesic effect” value in [1] is recorded as 3 days; in data set [9] (setting [12]), 10 days; in data set [2], “less than 14 days”. In addition, the “pain score vs control group” value in data set [1] is “improved in a significant sense”. For the same substance, the “muscle pressure pain threshold value vs control group” value in [1] was “increased in a significant sense”; in data set [9] (1% (w/v) i.m. 10 days before carrageenan, measured 3 h after carrageenan, FIG. 9), “increased in a significant sense”; in data set [2] it was “not increased”.

For the origin of these results see patent US10098962B2, “Glycosaminoglycan derivative and method for producing same” (Seikagaku Corporation, priority 2013, dated 2018).
